Columns and labels:
[1] = molecular target: Methionine γ-lyase from Yarrowia lipolytica (yMGL) (Yarrowia lipolytica); assay: crystal structure
[2] = molecular target: Methionine γ-lyase from Yarrowia lipolytica (yMGL) (Yarrowia lipolytica); assay: SEC + other: dynamic light scattering
[3] = molecular target: yMGL-ΔCTD (yMGL with the C-terminal residues 253-380 deleted) (Yarrowia lipolytica); assay: SEC + other: dynamic light scattering

Row | Substance | stoichiometry N [1] | stoichiometry N [2] | stoichiometry N [3]
1 | Methionine γ-lyase from Yarrowia lipolytica (yMGL) (enzyme) | 2 | 4 | 
2 | yMGL-ΔCTD (yMGL with the C-terminal residues 253-380 deleted) (domain or fragment) |  |  | 6
